Laboratory results: patent US20250043302A1, “MUTATED HYDROXYPHENYLPYRUVATE DIOXYGENASE POLYPEPTIDE, AND CODING GENE AND USE THEREOF” (BEIJING DABEINONG BIOTECHNOLOGY CO., LTD., priority 2021, published 2025)

Experiments:
Format in all cases: in vivo
[1] = tested on: Arabidopsis thaliana T1 plants; test: Isoxaflutole tolerance of transgenic Arabidopsis thaliana T1 plants (spray, bleached leaf area grade, damage score); design: Scores (pesticide damage): scale not given here; details: for Classification and statistics of the grade of pesticide damage: Grade 0 (number of plants) / Classification and statistics of the grade of pesticide damage: Grade 1 (number of plants) / Classification and statistics of the grade of pesticide damage: Grade 2 (number of plants) / Classification and statistics of the grade of pesticide damage: Grade 3 (number of plants): 16 plants; for Classification and statistics of the grade of pesticide damage Grade 0 / Classification and statistics of the grade of pesticide damage Grade 1 / Classification and statistics of the grade of pesticide damage Grade 2 / Classification and statistics of the grade of pesticide damage Grade 3: number of plants in grade
Summary of the method: (§1)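 Damage graded 0–3 from the proportion of bleached leaf area 7 days after spraying. Plants were glufosinate-selected T1 lines, 18 days after sowing, plus vector and wild-type controls. Rates: mesotrione 52.5–420, isoxaflutole 35–280, topramezone 25–200 g ai/ha, with water (0×).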

[2] = tested on: Arabidopsis thaliana T1 plants; test: Topramezone tolerance of transgenic Arabidopsis thaliana T1 plants (spray, bleached leaf area grade, damage score); details: for Classification and statistics of the grade of pesticide damage Grade 0: number of plants at grade 0; for Classification and statistics of the grade of pesticide damage Grade 1: number of plants at grade 1; for Classification and statistics of the grade of pesticide damage Grade 2: number of plants at grade 2; for Classification and statistics of the grade of pesticide damage Grade 3: number of plants at grade 3; for Classification and statistics of the grade of pesticide damage: Grade 0 / Classification and statistics of the grade of pesticide damage: Grade 1 / Classification and statistics of the grade of pesticide damage: Grade 2 / Classification and statistics of the grade of pesticide damage: Grade 3: number of plants
Summary of the method: as §1

[3] = tested on: Arabidopsis thaliana T1 plants; test: Mesotrione tolerance of transgenic Arabidopsis thaliana T1 plants (spray, bleached leaf area grade, damage score); design: Scores: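 damage score 0-100 computed as Σ(N×S)/(T×M)×100 over grades 0-3 with higher meaning more damage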; details: for Grade 0 (classification and statistics of the grade of pesticide damage; number of plants) / Grade 1 (classification and statistics of the grade of pesticide damage; number of plants) / Grade 2 (classification and statistics of the grade of pesticide damage; number of plants) / Grade 3 (classification and statistics of the grade of pesticide damage; number of plants): 16 plants; for Classification and statistics of the grade of pesticide damage Grade 0 / Classification and statistics of the grade of pesticide damage Grade 1 / Classification and statistics of the grade of pesticide damage Grade 2 / Classification and statistics of the grade of pesticide damage Grade 3: number of plants in grade
Summary of the method: as §1

[4] = isoxaflutole 35 g ai/ha (0.5x field concentration), spray, Arabidopsis thaliana T1 plants
[5] = isoxaflutole 70 g ai/ha (1x field concentration), spray, Arabidopsis thaliana T1 plants
[6] = Table 13, topramezone 25 g ai/ha (1×)
[7] = Table 13, topramezone 100 g ai/ha (4×)
[8] = topramezone 25 g ai/ha (1×), 7 DAT, Table 4
[9] = topramezone 100 g ai/ha (4×), 7 DAT, Table 4
[10] = mesotrione 52.5 g ai/ha, Arabidopsis thaliana T1 plants
[11] = mesotrione 105 g ai/ha, Arabidopsis thaliana T1 plants

B1: AtHPPD-02: nucleotide sequence encoding wild-type Arabidopsis thaliana HPPD; vector DBN11730 (nucleic acid)
DNA: ATGGGACATCAGAATGCTGCTGTATCAGAAAATCAAAATCATGATGATGGAGCCGCCTCCTCACCAGGGTTTAAGTTGGTTGGGTTCTCCAAGTTTGTACGGAAGAACCCAAAATCCGACAAGTTCAAGGTTAAACGCTTCCACCACATTGAATTCTGGTGCGGCGACGCCACCAATGTTGCTCGGCGTTTTTCATGGGGTTTAGGCATGAGATTCTCAGCAAAGAGTGACCTGAGCACCGGCAACATGGTTCATGCTAGCTATCTCTTAACATCTGGAGATTTGAGGTTTCTTTTCACGGCGCCGTACTCACCATCACTCTCCGCCGGCGAGATCAAACCCACCACGACTGCAAGCATACCTTCATTTGATCATGGTAGTTGCAGATCCTTCTTCTCGTCGCACGGCCTAGGGGTGCGCGCGGTCGCCATCGAAGTTGAAGATGCAGAATCAGCGTTTAGTATCAGCGTGGCAAATGGAGCTATTCCTTCCTCCCCTCCAATTGTCCTCAATGAGGCTGTAACTATTGCCGAGGTGAAGTTGTATGGAGATGTTGTGCTGAGATATGTTTCTTACAAGGCAGAGGACACTGAGAAATCTGAATTTTTGCCTGGTTTTGAAAGGGTCGAGGATGCTTCAAGTTTTCCTCTTGATTACGGCATACGACGGTTGGATCACGCGGTTGGAAATGTACCAGAACTTGGGCCGGCGCTCACTTATGTGGCTGGTTTCACTGGATTCCATCAATTTGCTGAGTTCACAGCTGATGATGTTGGGACTGCTGAAAGTGGGTTGAACTCTGCAGTCCTCGCCTCTAATGATGAAATGGTGCTCCTCCCGATCAACGAGCCTGTGCATGGCACCAAAAGGAAATCACAAATACAGACATATCTTGAGCACAATGAAGGTGCAGGGCTTCAACATCTTGCACTGATGTCTGAAGACATTTTCCGTACGCTGAGAGAGATGAGGAAGAGAAGTAGTATTGGTGGATTTGACTTCATGCCTTCTCCCCCACCAACTTACTACCAGAACTTGAAGAAGAGGGTTGGTGATGTGCTATCTGATGACCAGATCAAGGAGTGTGAAGAATTGGGCATTCTTGTTGATCGGGACGACCAAGGAACATTACTGCAGATATTTACAAAACCACTTGGTGACCGCCCCACTATTTTTATTGAGATCATACAAAGAGTCGGCTGCATGATGAAGGATGAGGAAGGAAAAGCATATCAATCTGGTGGTTGTGGCGGCTTTGGGAAAGGAAACTTCTCTGAGCTGTTCAAATCCATCGAGGAGTATGAGAAGACCTTGGAGGCCAAGCAGCTCGTGGGTTGA
modifications: AtHPPD-02 Nucleotide Sequence
notes: vector DBN11730
Resistance evaluation ([1]; isoxaflutole 35 g ai/ha): Non-resistant
Scores ([1]; isoxaflutole 35 g ai/ha): 100
Resistance evaluation [1, 4]: Non-resistant
Scores (pesticide damage) [1, 4]: 100
Classification and statistics of the grade of pesticide damage: Grade 0 (number of plants) [1, 4]: 0
Classification and statistics of the grade of pesticide damage: Grade 1 (number of plants) [1, 4]: 0
Classification and statistics of the grade of pesticide damage: Grade 2 (number of plants) [1, 4]: 0
Classification and statistics of the grade of pesticide damage: Grade 3 (number of plants) [1, 4]: 16
Classification and statistics of the grade of pesticide damage Grade 0 ([1]; isoxaflutole 35 g ai/ha): 0
Classification and statistics of the grade of pesticide damage Grade 1 ([1]; isoxaflutole 35 g ai/ha): 0
Classification and statistics of the grade of pesticide damage Grade 2 ([1]; isoxaflutole 35 g ai/ha): 0
Classification and statistics of the grade of pesticide damage Grade 3 ([1]; isoxaflutole 35 g ai/ha): 16
Resistance evaluation ([1]; isoxaflutole 70 g ai/ha): Non-resistant
Scores ([1]; isoxaflutole 70 g ai/ha): 100
Resistance evaluation [1, 5]: Non-resistant
Scores (pesticide damage) [1, 5]: 100
Classification and statistics of the grade of pesticide damage: Grade 0 (number of plants) [1, 5]: 0
Classification and statistics of the grade of pesticide damage: Grade 1 (number of plants) [1, 5]: 0
Classification and statistics of the grade of pesticide damage: Grade 2 (number of plants) [1, 5]: 0
Classification and statistics of the grade of pesticide damage: Grade 3 (number of plants) [1, 5]: 16
Classification and statistics of the grade of pesticide damage Grade 0 ([1]; isoxaflutole 70 g ai/ha): 0
Classification and statistics of the grade of pesticide damage Grade 1 ([1]; isoxaflutole 70 g ai/ha): 0
Classification and statistics of the grade of pesticide damage Grade 2 ([1]; isoxaflutole 70 g ai/ha): 0
Classification and statistics of the grade of pesticide damage Grade 3 ([1]; isoxaflutole 70 g ai/ha): 16
Resistance evaluation [2, 6]: Non-resistant
Classification and statistics of the grade of pesticide damage Grade 0 [2, 6]: 0
Classification and statistics of the grade of pesticide damage Grade 1 [2, 6]: 0
Classification and statistics of the grade of pesticide damage Grade 2 [2, 6]: 0
Classification and statistics of the grade of pesticide damage Grade 3 [2, 6]: 16
Scores ([2]; Table 13, topramezone 25 g ai/ha (1×), pesticide damage score): 100
Resistance evaluation [2, 7]: Non-resistant
Classification and statistics of the grade of pesticide damage Grade 0 [2, 7]: 0
Classification and statistics of the grade of pesticide damage Grade 1 [2, 7]: 0
Classification and statistics of the grade of pesticide damage Grade 2 [2, 7]: 0
Classification and statistics of the grade of pesticide damage Grade 3 [2, 7]: 16
Scores ([2]; Table 13, topramezone 100 g ai/ha (4×), pesticide damage score): 100
Classification and statistics of the grade of pesticide damage: Grade 0 [2, 8]: 0
Classification and statistics of the grade of pesticide damage: Grade 1 [2, 8]: 0
Classification and statistics of the grade of pesticide damage: Grade 2 [2, 8]: 0
Classification and statistics of the grade of pesticide damage: Grade 3 [2, 8]: 16
Classification and statistics of the grade of pesticide damage: Grade 0 [2, 9]: 0
Classification and statistics of the grade of pesticide damage: Grade 1 [2, 9]: 0
Classification and statistics of the grade of pesticide damage: Grade 2 [2, 9]: 0
Classification and statistics of the grade of pesticide damage: Grade 3 [2, 9]: 16
Scores ([2]; pesticide damage score 0-100, topramezone 25 g ai/ha (1×), 7 DAT, Table 4): 100
Scores ([2]; pesticide damage score 0-100, topramezone 100 g ai/ha (4×), 7 DAT, Table 4): 100
Resistance evaluation [2, 8]: non-resistant (non-resistant plants (scores 68-100))
Resistance evaluation [2, 9]: non-resistant (non-resistant plants (scores 68-100))
Resistance evaluation ([3]; mesotrione 52.5 g ai/ha): Non-resistant
Scores ([3]; mesotrione 52.5 g ai/ha): 100
Resistance evaluation [3, 10]: Non-resistant
Scores [3, 10]: 100
Grade 0 (classification and statistics of the grade of pesticide damage; number of plants) [3, 10]: 0
Grade 1 (classification and statistics of the grade of pesticide damage; number of plants) [3, 10]: 0
Grade 2 (classification and statistics of the grade of pesticide damage; number of plants) [3, 10]: 0
Grade 3 (classification and statistics of the grade of pesticide damage; number of plants) [3, 10]: 16
Classification and statistics of the grade of pesticide damage Grade 0 ([3]; mesotrione 52.5 g ai/ha): 0
Classification and statistics of the grade of pesticide damage Grade 1 ([3]; mesotrione 52.5 g ai/ha): 0
Classification and statistics of the grade of pesticide damage Grade 2 ([3]; mesotrione 52.5 g ai/ha): 0
Classification and statistics of the grade of pesticide damage Grade 3 ([3]; mesotrione 52.5 g ai/ha): 16
Resistance evaluation ([3]; mesotrione 105 g ai/ha): Non-resistant
Scores ([3]; mesotrione 105 g ai/ha): 100
Resistance evaluation [3, 11]: Non-resistant
Scores [3, 11]: 100
Grade 0 (classification and statistics of the grade of pesticide damage; number of plants) [3, 11]: 0
Grade 1 (classification and statistics of the grade of pesticide damage; number of plants) [3, 11]: 0
Grade 2 (classification and statistics of the grade of pesticide damage; number of plants) [3, 11]: 0
Grade 3 (classification and statistics of the grade of pesticide damage; number of plants) [3, 11]: 16
Classification and statistics of the grade of pesticide damage Grade 0 ([3]; mesotrione 105 g ai/ha): 0
Classification and statistics of the grade of pesticide damage Grade 1 ([3]; mesotrione 105 g ai/ha): 0
Classification and statistics of the grade of pesticide damage Grade 2 ([3]; mesotrione 105 g ai/ha): 0
Classification and statistics of the grade of pesticide damage Grade 3 ([3]; mesotrione 105 g ai/ha): 16
